# The supplement of paper PMC9732359
# ± gives the uncertainty stated by the source.
# Experiment: protein stability index of a GFP-peptide fusion (yeast GPS) (PSI 1-4); higher = more stable; sorted into four equal gates, so the index is relative within each strain
# In short: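 Yeast carrying a pooled library were grown to mid-log phase in leucine-free medium. Each library plasmid expresses Cherry and has a tiled 17-residue yeast protein peptide fused downstream of GFP. Cells were sorted into four equal gates by GFP/Cherry ratio, and plasmids from each gate were PCR-amplified, Illumina-sequenced and assigned to strains by barcode. Summing, across gates, the read frequency times the gate number gave each peptide's protein stability index.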
Sequence,protein stability index (doa10∆),protein stability index (pdr5∆),protein stability index (san1∆),protein stability index (ubr1∆)
LVRRLSDIKQGYTQHGG [PRE9],2.5 ± 0.14,2.06 ± 0.25,2.48 ± 0.09,–
LVRYGLAEKVEKASRQQ [RPS24A],–,3.33 ± 0.11,3.38 ± 0.098,3.19 ± 0.19
LVSRGGCGNTQPTIRKD [RPO21],2.96 ± 0.07,2.74 ± 0.11,2.83 ± 0.043,2.9 ± 0.043
LVTIEGALIHKAGLMTG [SMC1],2.99 ± 0.14,2.71 ± 0.12,2.92 ± 0.13,2.95 ± 0.12
LVTKILPLKKNEIIGDR [YCG1],2.88 ± 0.22,2.9 ± 0.18,2.6 ± 0.24,2.83 ± 0.27
LVYNMTSFEQGEITFDG [RPT4],2.65 ± 0.095,2.33 ± 0.079,2.97 ± 0.085,2.94 ± 0.17
LVYQYKGAGLSMGTMIC [PRE2],2.06 ± 0.083,2.3 ± 0.097,2.18 ± 0.16,2.24 ± 0.11
LWKLLSTVKVSDLNLTD [YLR018C/POM34],2.35 ± 0.065,2.26 ± 0.044,2.3 ± 0.06,2.52 ± 0.039
LWLKKVMEEEEQDCKCI [POP8],2.63 ± 0.077,2.7 ± 0.068,3.05 ± 0.078,2.99 ± 0.051
LYDSLASTPSIRPDGRL [RRP42],2.64 ± 0.14,2.81 ± 0.096,2.4 ± 0.18,2.99 ± 0.088
LYENIASSPIILEEGSS [RPN10],2.2 ± 0.04,2.37 ± 0.047,2.35 ± 0.06,2.35 ± 0.036
LYGPPGTGKTMLVKAVA [RPT3],–,1.17 ± 0.11,1.15 ± 0.21,1.37 ± 0.14
LYNVMGINKKKLLAISK [RPC31],2.83 ± 0.26,2.3 ± 0.16,3.67 ± 0.095,3.5 ± 0.26
LYQLVDIRDSSCQGNVI [YMR129W/POM152],3.02 ± 0.1,3.12 ± 0.089,2.86 ± 0.058,2.96 ± 0.048
LYVVGLFDTYHASKAIG [RRP6],1.91 ± 0.045,2.38 ± 0.043,1.88 ± 0.069,2.49 ± 0.035
LYYDEDINVESLTQSVC [PUP2],2.36 ± 0.061,2.25 ± 0.052,2.46 ± 0.064,2.21 ± 0.031
MAESLVDLEEVMDTIQE [SSN8],–,3.02 ± 0.16,3.2 ± 0.19,3.2 ± 0.093
MAHRVKVIPYSTFRLNL [RPO21],1.87 ± 0.07,1.82 ± 0.071,1.2 ± 0.12,2.29 ± 0.095
MAILLLYNDADVLTLEN [CDC53],1.58 ± 0.09,1.93 ± 0.063,2.5 ± 0.084,2.75 ± 0.06
MAKDNLTNLLSQLNIQL [SRP72],2.99 ± 0.077,3.13 ± 0.084,3.15 ± 0.074,2.96 ± 0.061
MAKKEGTPKTDSFIFDG [MED4],3.43 ± 0.13,3.22 ± 0.15,2.94 ± 0.17,3.28 ± 0.092
MAKSKNHTAHNQTRKAH [RPL29],1.7 ± 0.058,2.41 ± 0.08,1.96 ± 0.095,2.32 ± 0.067
MALKFVSIKFTNAAFPF [ECM29],2.09 ± 0.058,1.98 ± 0.058,1.76 ± 0.078,1.82 ± 0.071
MAPNTSRKQKVIKTLTV [RPL22B],2.1 ± 0.18,2 ± 0.088,2.6 ± 0.13,1.97 ± 0.093
MDNPRKLSKILRTEYGW [SNU114],3.11 ± 0.068,2.99 ± 0.081,2.91 ± 0.059,2.94 ± 0.066
MDRTSLRKQYSAIDEEI [SMC3],2.28 ± 0.21,–,–,2.63 ± 0.25
MDTSDDAFVATAFATEF [DLS1],2.82 ± 0.07,3.08 ± 0.09,2.75 ± 0.081,2.8 ± 0.044

Sequence,protein stability index (doa10∆),protein stability index (pdr5∆),protein stability index (san1∆),protein stability index (ubr1∆)
MDYHFIFSYLQFTSSLF [RGR1],2.08 ± 0.046,1.39 ± 0.043,1.25 ± 0.076,1.21 ± 0.047
MEDEILSLGMDFIKFDQ [BRN1],3.23 ± 0.061,3.35 ± 0.052,3.27 ± 0.041,3.15 ± 0.043
MEDVKIQKEEEPENNTV [SWI3],3.31 ± 0.11,3.35 ± 0.073,3.41 ± 0.058,3.41 ± 0.057
MEKESVYNLALKCAERQ [NUT1],–,2.1 ± 0.26,2.91 ± 0.21,–
MEKKKSSSLSLESFMKS [SNM1],1.84 ± 0.04,1.91 ± 0.045,2.62 ± 0.06,2.04 ± 0.04
MEMIENRTMDGKPVSLP [FAS1],3.38 ± 0.15,3.24 ± 0.22,2.75 ± 0.16,3.39 ± 0.096
MENDKGQLVELYVPRKC [RPS21A],3.17 ± 0.14,–,3.23 ± 0.12,3.25 ± 0.091
MEVLGIEAGRAALYKEV [RPO21],2.55 ± 0.14,2.9 ± 0.2,2.4 ± 0.16,2.76 ± 0.12
MEYHISNTDETKGENYQ [FAS2],3.03 ± 0.12,3.22 ± 0.14,2.75 ± 0.2,–
MFLEFQSTQTDLEKTER [SMC2],3.31 ± 0.1,2.8 ± 0.14,2.86 ± 0.25,2.64 ± 0.15
MFNNHEIDTILSTLRME [RPN9],–,3.51 ± 0.2,2.84 ± 0.13,3.03 ± 0.071
MFRYKTNLYKLKEERAI [PUP3],2.87 ± 0.22,2.67 ± 0.17,1.78 ± 0.17,2.1 ± 0.093
MGENEKPDVTYADVGGL [RPT3],3.07 ± 0.18,3.41 ± 0.074,3.28 ± 0.1,3.31 ± 0.079
MGKGTPSFGKRHNKSHT [RPL37A],3.24 ± 0.089,3.4 ± 0.067,3.1 ± 0.077,3.02 ± 0.069
MGQIATFIYFAYFLIIV [COB],1.63 ± 0.053,1.29 ± 0.046,1.16 ± 0.098,1.11 ± 0.026
MGVIKKKRSHHGKASRQ [SNF6],3.15 ± 0.14,3.15 ± 0.12,–,–
MGVRTFSQKEMAFNLLG [FAS2],2.1 ± 0.078,1.9 ± 0.057,2.15 ± 0.083,2.21 ± 0.046
MHSYFIFKDLVTVFLFM [COB],1.47 ± 0.04,1.32 ± 0.037,1.36 ± 0.056,1.34 ± 0.025
MINDENYIINDIKKNNK [SRB8],3.15 ± 0.078,2.97 ± 0.095,3.42 ± 0.12,3.21 ± 0.13
MINGRKLIKFETRNEDD [FAS1],2.9 ± 0.071,2.81 ± 0.068,3.07 ± 0.047,2.81 ± 0.044
MINRLLLCALDRKDQDD [RPB2],1.86 ± 0.16,3.11 ± 0.1,2.11 ± 0.17,2.97 ± 0.067
MIVYYKDAISFIKEIHK [YCS4],2.19 ± 0.092,1.84 ± 0.069,2.57 ± 0.11,2.26 ± 0.072
MKLVNFLKKLRNEQVTI [SMD1],1.87 ± 0.17,1.93 ± 0.095,2.04 ± 0.14,2.5 ± 0.11
MKPSEILSLIEEAAGTK [SMC2],3.24 ± 0.1,3.23 ± 0.084,3.22 ± 0.083,3.22 ± 0.064
MKQLKFFKPLDYITEAV [SNU114],2.12 ± 0.043,2.05 ± 0.052,1.86 ± 0.082,1.92 ± 0.036
MKRMVAQWERSKLSQEF [SNF12],3.23 ± 0.22,3.05 ± 0.15,3.11 ± 0.23,3.21 ± 0.087
MKTPSLTVYLEPGHAAD [RPO21],3.01 ± 0.092,2.7 ± 0.079,2.9 ± 0.059,3 ± 0.073
